The values that follow are results of earlier work, collected in patent publication US10131637B2, “Anti-PCSK9 compounds and methods for the treatment and/or prevention of cardiovascular diseases” (Shifa Biomedical Corporation, priority 2013, dated 2018).

This data set deals with T1, PCSK9 (Homo sapiens, UniProt Q8NBP7).
T1 construct: slashed LDL levels by more than 60% in clinical trial; host or cells: patients in a clinical trial (endogenous circulating PCSK9)
The conditions noted are these: single injection, clinical trial.

For the substance “REGN727: Regeneron/Sanofi monoclonal antibody blocking PCSK9”, the “reduction of LDL levels” value is “more than 60%”.
